Data reported in patent US7070777.
Values belong to the substance of their own block, whether it stands above or below them.

What was measured:
[1] = molecular target: CD45RA (human) (UniProt P08575); assay: FACS on Jurkat D1.1 cells; background subtracted, rounded to nearest ten
[2] = molecular target: CD45RA (human) (UniProt P08575); assay: FACS on Jurkat B2.7 cells; background subtracted, rounded to nearest ten
[3] = molecular target: CD7 (human) (UniProt P09564); assay: FACS on Jurkat D1.1 cells; background subtracted, rounded to nearest ten
[4] = molecular target: CD7 (human) (UniProt P09564); assay: FACS on Jurkat B2.7 cells; background subtracted, rounded to nearest ten
[5] = molecular target: CD16 (human); assay: FACS on Jurkat D1.1 cells; background subtracted, rounded to nearest ten
[6] = molecular target: CD16 (human); assay: FACS on Jurkat B2.7 cells; background subtracted, rounded to nearest ten
[7] = molecular target: CD29 (human) (UniProt P05556); assay: FACS on Jurkat D1.1 cells; background subtracted, rounded to nearest ten
[8] = molecular target: CD29 (human) (UniProt P05556); assay: FACS on Jurkat B2.7 cells; background subtracted, rounded to nearest ten
[9] = molecular target: TCRα/β (human); assay: FACS on Jurkat D1.1 cells; background subtracted, rounded to nearest ten
[10] = molecular target: TCRα/β (human); assay: FACS on Jurkat B2.7 cells; background subtracted, rounded to nearest ten
[11] = molecular target: CD5 (human) (UniProt P06127); assay: FACS on Jurkat D1.1 cells; background subtracted, rounded to nearest ten
[12] = molecular target: CD5 (human) (UniProt P06127); assay: FACS on Jurkat B2.7 cells; background subtracted, rounded to nearest ten
[13] = molecular target: CD3 (human) (UniProt P07766); assay: FACS on Jurkat D1.1 cells; background subtracted, rounded to nearest ten
[14] = molecular target: CD3 (human) (UniProt P07766); assay: FACS on Jurkat B2.7 cells; background subtracted, rounded to nearest ten
[15] = molecular target: CD4 (human) (UniProt P01730); assay: as above
[16] = molecular target: CD1a (human) (UniProt P06126); assay: FACS on Jurkat D1.1 cells; background subtracted, rounded to nearest ten
[17] = molecular target: CD1a (human) (UniProt P06126); assay: FACS on Jurkat B2.7 cells; background subtracted, rounded to nearest ten
[18] = molecular target: CD18 (human) (UniProt P05107); assay: FACS on Jurkat D1.1 cells; background subtracted, rounded to nearest ten
[19] = molecular target: CD18 (human) (UniProt P05107); assay: FACS on Jurkat B2.7 cells; background subtracted, rounded to nearest ten
[20] = molecular target: CD11a (human) (UniProt P20701); assay: FACS on Jurkat D1.1 cells; background subtracted, rounded to nearest ten
[21] = molecular target: CD11a (human) (UniProt P20701); assay: FACS on Jurkat B2.7 cells; background subtracted, rounded to nearest ten
[22] = molecular target: CD58 (human) (UniProt P19256); assay: FACS on Jurkat D1.1 cells; background subtracted, rounded to nearest ten
[23] = molecular target: CD58 (human) (UniProt P19256); assay: FACS on Jurkat B2.7 cells; background subtracted, rounded to nearest ten
[24] = molecular target: CD43RO (so in the source); T200. LCA) (human) (UniProt P08575); assay: FACS on Jurkat D1.1 cells; background subtracted, rounded to nearest ten
[25] = molecular target: CD43RO (so in the source); T200. LCA) (human) (UniProt P08575); assay: FACS on Jurkat B2.7 cells; background subtracted, rounded to nearest ten
[26] = molecular target: MHC-classI (human); assay: FACS on Jurkat D1.1 cells; background subtracted, rounded to nearest ten
[27] = molecular target: MHC-classI (human); assay: FACS on Jurkat B2.7 cells; background subtracted, rounded to nearest ten

CD5 (human), sequence (P06127 25-495): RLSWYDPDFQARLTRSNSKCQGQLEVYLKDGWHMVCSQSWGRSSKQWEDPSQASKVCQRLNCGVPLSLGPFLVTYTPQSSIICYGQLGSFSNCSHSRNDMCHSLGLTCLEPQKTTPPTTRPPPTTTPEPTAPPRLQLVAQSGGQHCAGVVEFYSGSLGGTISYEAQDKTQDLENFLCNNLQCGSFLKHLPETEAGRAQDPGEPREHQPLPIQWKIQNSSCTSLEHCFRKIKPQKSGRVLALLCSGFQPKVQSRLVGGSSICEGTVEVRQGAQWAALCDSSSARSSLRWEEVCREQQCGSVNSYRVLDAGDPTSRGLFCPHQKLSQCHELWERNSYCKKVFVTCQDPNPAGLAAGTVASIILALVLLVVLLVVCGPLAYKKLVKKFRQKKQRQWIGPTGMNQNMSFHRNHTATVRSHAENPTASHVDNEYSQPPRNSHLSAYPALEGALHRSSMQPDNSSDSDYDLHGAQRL
CD29 (human), sequence (P05556 21-798): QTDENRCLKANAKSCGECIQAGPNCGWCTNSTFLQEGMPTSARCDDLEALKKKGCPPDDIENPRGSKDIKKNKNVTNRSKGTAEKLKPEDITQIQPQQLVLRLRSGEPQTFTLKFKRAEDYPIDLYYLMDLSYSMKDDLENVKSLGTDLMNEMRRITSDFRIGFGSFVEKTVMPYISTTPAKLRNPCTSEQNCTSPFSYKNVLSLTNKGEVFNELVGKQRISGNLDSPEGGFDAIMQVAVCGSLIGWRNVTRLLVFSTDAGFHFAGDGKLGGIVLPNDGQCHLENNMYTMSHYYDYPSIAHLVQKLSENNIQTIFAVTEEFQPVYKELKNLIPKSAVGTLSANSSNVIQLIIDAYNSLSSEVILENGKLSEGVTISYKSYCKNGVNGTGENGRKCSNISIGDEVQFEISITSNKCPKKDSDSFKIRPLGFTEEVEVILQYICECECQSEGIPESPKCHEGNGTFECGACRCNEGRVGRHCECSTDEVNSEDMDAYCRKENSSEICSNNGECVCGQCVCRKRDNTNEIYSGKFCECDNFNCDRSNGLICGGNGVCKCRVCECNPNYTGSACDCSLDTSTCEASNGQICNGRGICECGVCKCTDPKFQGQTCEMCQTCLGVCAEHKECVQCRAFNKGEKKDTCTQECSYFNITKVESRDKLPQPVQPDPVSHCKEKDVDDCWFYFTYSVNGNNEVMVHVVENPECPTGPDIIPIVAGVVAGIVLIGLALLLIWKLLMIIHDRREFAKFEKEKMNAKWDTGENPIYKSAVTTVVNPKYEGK
CD7 (human), sequence (P09564 26-240): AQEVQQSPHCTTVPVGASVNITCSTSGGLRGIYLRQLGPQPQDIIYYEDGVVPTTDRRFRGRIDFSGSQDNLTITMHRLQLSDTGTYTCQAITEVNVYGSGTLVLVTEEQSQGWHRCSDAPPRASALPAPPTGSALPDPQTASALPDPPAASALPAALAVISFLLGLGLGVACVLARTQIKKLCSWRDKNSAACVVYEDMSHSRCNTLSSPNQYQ
CD1a (human), sequence (P06126 17-327): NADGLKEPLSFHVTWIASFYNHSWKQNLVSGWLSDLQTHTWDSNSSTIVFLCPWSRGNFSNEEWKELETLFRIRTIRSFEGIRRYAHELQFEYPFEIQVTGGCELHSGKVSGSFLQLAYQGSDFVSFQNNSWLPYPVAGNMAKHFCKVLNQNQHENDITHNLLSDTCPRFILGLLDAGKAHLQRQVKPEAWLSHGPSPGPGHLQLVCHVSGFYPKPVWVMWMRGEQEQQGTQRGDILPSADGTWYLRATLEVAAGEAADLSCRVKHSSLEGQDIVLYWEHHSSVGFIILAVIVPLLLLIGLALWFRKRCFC
CD18 (human), sequence (P05107 23-769): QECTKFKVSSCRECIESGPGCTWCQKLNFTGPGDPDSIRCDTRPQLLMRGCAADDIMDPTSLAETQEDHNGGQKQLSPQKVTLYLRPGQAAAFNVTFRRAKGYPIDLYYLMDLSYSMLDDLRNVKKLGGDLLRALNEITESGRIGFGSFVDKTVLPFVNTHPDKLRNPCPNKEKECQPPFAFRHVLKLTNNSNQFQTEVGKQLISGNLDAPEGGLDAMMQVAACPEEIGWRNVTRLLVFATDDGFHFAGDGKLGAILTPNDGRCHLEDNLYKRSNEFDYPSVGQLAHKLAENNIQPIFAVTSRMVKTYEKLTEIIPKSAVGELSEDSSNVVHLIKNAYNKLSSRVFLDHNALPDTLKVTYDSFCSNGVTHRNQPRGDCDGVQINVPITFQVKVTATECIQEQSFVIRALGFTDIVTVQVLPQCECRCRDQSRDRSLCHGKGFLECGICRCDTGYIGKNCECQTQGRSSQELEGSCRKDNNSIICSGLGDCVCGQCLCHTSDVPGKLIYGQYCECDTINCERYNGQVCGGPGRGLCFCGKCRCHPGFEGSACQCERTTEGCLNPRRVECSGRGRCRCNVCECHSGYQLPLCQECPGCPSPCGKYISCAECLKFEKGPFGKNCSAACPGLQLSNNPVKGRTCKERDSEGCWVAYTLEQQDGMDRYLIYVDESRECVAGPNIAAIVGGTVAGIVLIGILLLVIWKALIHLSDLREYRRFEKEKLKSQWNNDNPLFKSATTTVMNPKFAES
CD58 (human), sequence (P19256 29-250): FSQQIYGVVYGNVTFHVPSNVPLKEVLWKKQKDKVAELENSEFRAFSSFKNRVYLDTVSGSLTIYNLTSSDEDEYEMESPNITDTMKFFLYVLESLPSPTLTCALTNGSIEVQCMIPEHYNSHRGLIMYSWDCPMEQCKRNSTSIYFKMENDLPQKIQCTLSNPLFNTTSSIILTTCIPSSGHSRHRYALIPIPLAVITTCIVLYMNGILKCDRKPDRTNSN
CD16 (human), sequence (P06734 whole entry): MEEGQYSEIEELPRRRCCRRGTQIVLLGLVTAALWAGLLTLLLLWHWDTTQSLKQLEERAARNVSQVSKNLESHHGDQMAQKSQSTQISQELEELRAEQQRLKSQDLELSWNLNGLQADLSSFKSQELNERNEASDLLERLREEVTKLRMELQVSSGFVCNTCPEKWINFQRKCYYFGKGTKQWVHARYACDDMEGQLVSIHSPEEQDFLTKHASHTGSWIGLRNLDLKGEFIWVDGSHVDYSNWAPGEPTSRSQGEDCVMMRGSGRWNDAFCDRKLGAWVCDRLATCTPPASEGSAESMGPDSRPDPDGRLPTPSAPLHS
CD3 (human), sequence (P07766 23-207): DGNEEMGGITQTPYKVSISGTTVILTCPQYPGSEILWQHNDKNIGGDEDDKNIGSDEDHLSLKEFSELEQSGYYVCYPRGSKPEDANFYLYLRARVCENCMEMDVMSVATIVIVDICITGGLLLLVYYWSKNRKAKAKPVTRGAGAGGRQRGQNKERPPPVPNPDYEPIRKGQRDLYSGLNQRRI
CD43RO (so in the source); T200. LCA) (human), sequence (P08575 26-1306): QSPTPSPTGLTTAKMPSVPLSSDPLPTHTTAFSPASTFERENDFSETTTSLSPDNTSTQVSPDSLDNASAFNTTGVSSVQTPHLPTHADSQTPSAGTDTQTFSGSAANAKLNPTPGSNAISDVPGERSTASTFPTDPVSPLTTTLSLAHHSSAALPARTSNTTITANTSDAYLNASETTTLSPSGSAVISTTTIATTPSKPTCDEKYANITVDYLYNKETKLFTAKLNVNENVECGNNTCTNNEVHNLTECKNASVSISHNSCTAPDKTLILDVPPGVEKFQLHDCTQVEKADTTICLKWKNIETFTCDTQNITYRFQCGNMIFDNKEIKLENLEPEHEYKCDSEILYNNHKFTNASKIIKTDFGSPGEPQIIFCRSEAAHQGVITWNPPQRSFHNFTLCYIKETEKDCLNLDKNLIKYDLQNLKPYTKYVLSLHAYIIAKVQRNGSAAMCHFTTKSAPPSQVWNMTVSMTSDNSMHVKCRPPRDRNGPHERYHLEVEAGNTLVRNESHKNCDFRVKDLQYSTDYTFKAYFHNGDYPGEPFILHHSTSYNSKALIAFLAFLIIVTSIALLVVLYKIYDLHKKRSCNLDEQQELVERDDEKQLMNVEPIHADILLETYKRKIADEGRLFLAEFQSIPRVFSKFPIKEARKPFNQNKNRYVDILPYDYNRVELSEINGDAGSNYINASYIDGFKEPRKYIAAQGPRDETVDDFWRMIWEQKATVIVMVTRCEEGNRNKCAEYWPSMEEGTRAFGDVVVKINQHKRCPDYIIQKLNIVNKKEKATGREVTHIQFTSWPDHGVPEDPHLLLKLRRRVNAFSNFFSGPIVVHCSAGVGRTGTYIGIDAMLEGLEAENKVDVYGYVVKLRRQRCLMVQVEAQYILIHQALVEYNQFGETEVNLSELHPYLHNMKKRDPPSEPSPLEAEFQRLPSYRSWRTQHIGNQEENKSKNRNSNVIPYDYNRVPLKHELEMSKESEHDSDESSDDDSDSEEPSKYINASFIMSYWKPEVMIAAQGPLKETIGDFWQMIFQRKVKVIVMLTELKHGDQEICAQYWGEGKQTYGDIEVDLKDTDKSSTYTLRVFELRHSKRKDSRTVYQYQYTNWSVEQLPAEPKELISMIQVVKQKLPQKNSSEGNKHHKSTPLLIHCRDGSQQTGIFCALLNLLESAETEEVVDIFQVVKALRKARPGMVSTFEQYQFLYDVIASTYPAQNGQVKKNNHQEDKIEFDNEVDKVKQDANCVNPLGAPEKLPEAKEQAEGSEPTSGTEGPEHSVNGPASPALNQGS
CD45RA (human), sequence (P08575 26-1306): as above

Substance: 3A1 (anti-CD7) (antibody)
Mean Fluorescence Intensity (arbitrary units) [3]: 200
Mean Fluorescence Intensity (arbitrary units) [4]: 190

Substance: 3G8 (antibody)
Mean Fluorescence Intensity (arbitrary units) [5]: 20
Mean Fluorescence Intensity (arbitrary units) [6]: 20

Substance: BMA-031 (antibody)
Mean Fluorescence Intensity (arbitrary units) [9]: 10
Mean Fluorescence Intensity (arbitrary units) [10]: 40

Substance: OKT3 (anti-CD3) (antibody)
Mean Fluorescence Intensity (arbitrary units) [13]: 30
Mean Fluorescence Intensity (arbitrary units) [14]: 80

Substance: OKT6 (anti-CD1a) (antibody)
Mean Fluorescence Intensity (arbitrary units) [16]: 10
Mean Fluorescence Intensity (arbitrary units) [17]: 10

Substance: TS1/18.1.2.11.4 (anti-LFA-1β) (antibody)
Mean Fluorescence Intensity (arbitrary units) [18]: 30
Mean Fluorescence Intensity (arbitrary units) [19]: 80

Substance: TS2/9.1.4.3 (anti-LFA-3) (antibody)
Mean Fluorescence Intensity (arbitrary units) [22]: 40
Mean Fluorescence Intensity (arbitrary units) [23]: 60

Substance: W6/32 (anti-MHC class I) (antibody)
Mean Fluorescence Intensity (arbitrary units) [26]: 190
Mean Fluorescence Intensity (arbitrary units) [27]: 70

Next, values leading:

Mean Fluorescence Intensity (arbitrary units) [1]: 30
Mean Fluorescence Intensity (arbitrary units) [2]: 40
Substance: 2H4 (antibody)

Mean Fluorescence Intensity (arbitrary units) [7]: 140
Mean Fluorescence Intensity (arbitrary units) [8]: 110
Substance: 4B4 (antibody)

Mean Fluorescence Intensity (arbitrary units) [11]: 20
Mean Fluorescence Intensity (arbitrary units) [12]: 90
Substance: OKT1 (anti-CD5) (antibody)

Mean Fluorescence Intensity (arbitrary units) [15]: 130
Substance: OKT4 (anti-CD4) (antibody)

Mean Fluorescence Intensity (arbitrary units) [20]: 40
Mean Fluorescence Intensity (arbitrary units) [21]: 100
Substance: TS1/22.1.13 (anti-LFA-1a) (antibody)

Mean Fluorescence Intensity (arbitrary units) [24]: 10
Mean Fluorescence Intensity (arbitrary units) [25]: 20
Substance: UCHL1 (antibody)
